According to patent US20230365662A1:
Numbering of substitutions follows the chain as printed. Names may count otherwise. “And” between values parts separate entries of the source, which are not always exact repeats. Identical values can stand only once.

B1: KB001 mouse Fab VL T24M (Fab, V domains shown)
VH: EVQLKQSGPGLVAPSQSLSITCTVSGFSLSIYSVHWVRQPPGKGLEWLGMIWGGGSSDYNSALKSRLSISKDNSKSQVFLKMNSLQTDDTAMYYCARNGNFYAMDYWGQGTSVTVSS
VL: QIVLTQSPAIMSASLGERVTMTCMASSSVSSSFLHWYQQKPGSSPQLWIYSTSNLASGVPARFSGSGSGTSYSLTISSMEAEDAATYYCHQYHHSPYIYTFGGGTKLEIK
B2: KB001 mouse Fab VL S28W (Fab, V domains shown)
VH: B1 VH
VL: B1 VL with M24T, S28W
B3: KB001 mouse Fab VL T24E (Fab, V domains shown)
VH: B1 VH
VL: B1 VL with M24E
B4: KB001 mouse Fab VL S28G (Fab, V domains shown)
VH: B1 VH
VL: B1 VL with M24T, S28G
B5: KB001 mouse Fab VL N54Q (Fab, V domains shown)
VH: B1 VH
VL: B1 VL with M24T, N54Q
B6: KB001 mouse Fab VL A25F (Fab, V domains shown)
VH: B1 VH
VL: B1 VL with M24T, A25F
B7: KB001 mouse Fab VL H90W (Fab, V domains shown)
VH: B1 VH
VL: B1 VL with M24T, H90W
B8: KB001 mouse Fab VL S51G (Fab, V domains shown)
VH: B1 VH
VL: B1 VL with M24T, S51G
B9: KB001 mouse Fab VL S53K (Fab, V domains shown)
VH: B1 VH
VL: B1 VL with M24T, S53K
B10: KB001 mouse Fab VL S30G (Fab, V domains shown)
VH: B1 VH
VL: B1 VL with M24T, S30G
B11: KB001 mouse Fab VL T52A (Fab, V domains shown)
VH: B1 VH
VL: B1 VL with M24T, T52A
B12: KB001 mouse Fab VL S31F (Fab, V domains shown)
VH: B1 VH
VL: B1 VL with M24T, S31F
B13: KB001 mouse Fab VL S57P (Fab, V domains shown)
VH: B1 VH
VL: B1 VL with M24T, S57P
B14: KB001 mouse Fab VL S30F (Fab, V domains shown)
VH: B1 VH
VL: B1 VL with M24T, S30F
B15: KB001 mouse Fab VL S57T (Fab, V domains shown)
VH: B1 VH
VL: B1 VL with M24T, S57T
B16: KB001 mouse Fab VL S53Q (Fab, V domains shown)
VH: B1 VH
VL: B1 VL with M24T, S53Q
B17: KB001 mouse Fab VL S53N (Fab, V domains shown)
VH: B1 VH
VL: B1 VL with M24T, S53N
B18: KB001 mouse Fab VL T24K (Fab, V domains shown)
VH: B1 VH
VL: B1 VL with M24K
B19: KB001 mouse Fab VL S31T (Fab, V domains shown)
VH: B1 VH
VL: B1 VL with M24T, S31T
B20: KB001 mouse Fab VL S57N (Fab, V domains shown)
VH: B1 VH
VL: B1 VL with M24T, S57N
B21: KB001 mouse Fab VL S28P (Fab, V domains shown)
VH: B1 VH
VL: B1 VL with M24T, S28P
B22: KB001 mouse Fab VL S28K (Fab, V domains shown)
VH: B1 VH
VL: B1 VL with M24T, S28K
B23: KB001 mouse Fab VL T52S (Fab, V domains shown)
VH: B1 VH
VL: B1 VL with M24T, T52S
B24: KB001 mouse Fab VL T24H (Fab, V domains shown)
VH: B1 VH
VL: B1 VL with M24H
B25: KB001 mouse Fab VL N54S (Fab, V domains shown)
VH: B1 VH
VL: B1 VL with M24T, N54S
B26: KB001 mouse Fab VL S26D (Fab, V domains shown)
VH: B1 VH
VL: B1 VL with M24T, S26D
B27: KB001 mouse Fab VL S57E (Fab, V domains shown)
VH: B1 VH
VL: B1 VL with M24T, S57E
B28: KB001 mouse Fab VL A25T (Fab, V domains shown)
VH: B1 VH
VL: B1 VL with M24T, A25T
B29: KB001 mouse Fab VL S31P (Fab, V domains shown)
VH: B1 VH
VL: B1 VL with M24T, S31P
B30: KB001 mouse Fab VL S57Q (Fab, V domains shown)
VH: B1 VH
VL: B1 VL with M24T, S57Q
B31: KB001 mouse Fab VL S57G (Fab, V domains shown)
VH: B1 VH
VL: B1 VL with M24T, S57G
B32: KB001 mouse Fab VL S26N (Fab, V domains shown)
VH: B1 VH
VL: B1 VL with M24T, S26N
B33: KB001 mouse Fab VL S57R (Fab, V domains shown)
VH: B1 VH
VL: B1 VL with M24T, S57R
B34: KB001 mouse Fab VL L55N (Fab, V domains shown)
VH: B1 VH
VL: B1 VL with M24T, L55N
B35: KB001 mouse Fab VL S28V (Fab, V domains shown)
VH: B1 VH
VL: B1 VL with M24T, S28V
B36: KB001 mouse Fab VL S27K (Fab, V domains shown)
VH: B1 VH
VL: B1 VL with M24T, S27K
B37: KB001 mouse Fab VL S53H (Fab, V domains shown)
VH: B1 VH
VL: B1 VL with M24T, S53H
B38: KB001 mouse Fab VL N54R (Fab, V domains shown)
VH: B1 VH
VL: B1 VL with M24T, N54R
B39: KB001 mouse Fab VL S31E (Fab, V domains shown)
VH: B1 VH
VL: B1 VL with M24T, S31E
B40: KB001 mouse Fab VL L55P (Fab, V domains shown)
VH: B1 VH
VL: B1 VL with M24T, L55P
B41: KB001 mouse Fab VL S31Y (Fab, V domains shown)
VH: B1 VH
VL: B1 VL with M24T, S31Y

Each binder was assayed against HRgpA-6H (Porphyromonas gingivalis) (UniProt P28784) (assay: ELISA, FASEBA Fab on coated HRgpA-6H).
UniProt P28784, sequence (P28784 228-991): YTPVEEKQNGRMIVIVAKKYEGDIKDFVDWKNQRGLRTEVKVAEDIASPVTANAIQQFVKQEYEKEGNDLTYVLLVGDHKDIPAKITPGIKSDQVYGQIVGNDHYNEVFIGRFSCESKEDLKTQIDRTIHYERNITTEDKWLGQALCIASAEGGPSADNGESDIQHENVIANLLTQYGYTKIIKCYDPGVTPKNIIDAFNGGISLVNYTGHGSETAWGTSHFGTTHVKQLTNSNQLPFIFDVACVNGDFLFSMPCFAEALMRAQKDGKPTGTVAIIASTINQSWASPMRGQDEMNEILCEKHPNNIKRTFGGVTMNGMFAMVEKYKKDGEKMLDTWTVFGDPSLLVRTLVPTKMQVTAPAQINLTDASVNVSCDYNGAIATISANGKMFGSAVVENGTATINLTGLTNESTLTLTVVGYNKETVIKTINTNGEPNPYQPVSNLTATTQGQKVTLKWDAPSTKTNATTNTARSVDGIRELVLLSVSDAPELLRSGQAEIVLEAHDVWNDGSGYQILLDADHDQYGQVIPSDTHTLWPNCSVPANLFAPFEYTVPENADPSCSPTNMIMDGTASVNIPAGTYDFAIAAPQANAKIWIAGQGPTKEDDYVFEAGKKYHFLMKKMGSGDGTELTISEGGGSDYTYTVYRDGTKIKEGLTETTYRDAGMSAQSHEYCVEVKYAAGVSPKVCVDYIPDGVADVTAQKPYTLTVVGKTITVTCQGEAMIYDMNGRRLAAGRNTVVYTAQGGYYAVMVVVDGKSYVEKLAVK

| Binder | OD450nm | Ratio OD(Variant)/OD(WT) |
| --- | --- | --- |
| B1 | 0.797 and 0.75 | 1.04 and 0.975 |
| B2 | 0.817 and 0.745 | 1.09 and 0.993 |
| B3 | 0.852 and 0.81 | 1.11 and 1.05 |
| B4 | 0.818 | 1.09 |
| B5 | 0.868 | 1.11 |
| B6 | 0.818 and 0.827 and 0.775 | 1.04 and 1.06 and 0.99 |
| B7 | 0.913 | 1.06 |
| B8 | 0.915 and 0.777 and 0.851 | 1.05 and 0.888 and 0.973 |
| B9 | 0.841 | 1.07 |
| B10 | 0.916 and 0.858 | 1.06 and 0.995 |
| B11 | – | 1.17 and 1.08 (2×) and 0.993 |
| B12 | 0.854 and 0.688 and 0.693 | 1.01 and 0.814 and 0.82 |
| B13 | 0.858 | 1.05 |
| B14 | 0.911 | 1.06 |
| B15 | 0.843 | 1.03 |
| B16 | 0.835 and 0.751 and 0.726 | 1.06 and 0.954 and 0.922 |
| B17 | 0.838 and 0.707 | 1.06 and 0.898 |
| B18 | 0.797 and 0.734 | 1.04 and 0.954 |
| B19 | 0.859 and 0.74 and 0.782 | 1.02 and 0.876 and 0.925 |
| B20 | 0.857 | 1.05 |
| B21 | 0.808 and 0.726 | 1.08 and 0.967 |

| Binder | OD450nm | Ratio OD(Variant)/OD(WT) |
| --- | --- | --- |
| B22 | 0.801 | 1.07 |
| B23 | 0.833 | 1.06 |
| B24 | 0.795 | 1.03 |
| B25 | 0.835 and 0.732 and 0.776 | 1.07 and 0.934 and 0.99 |
| B26 | 0.821 | 1.05 |
| B27 | 0.843 | 1.03 |
| B28 | 0.823 and 0.801 | 1.05 and 1.02 |
| B29 | 0.87 and 0.875 and 0.856 | 1.03 and 1.04 and 1.01 |
| B30 | 0.858 and 0.838 | 1.05 and 1.03 |
| B31 | 0.873 and 0.825 | 1.07 and 1.01 |
| B32 | 0.823 and 0.749 | 1.05 and 0.957 |
| B33 | 0.845 and 0.849 | 1.04 |
| B34 | 0.816 and 0.815 and 0.777 | 1.04 (2×) and 0.992 |
| B35 | 0.786 and 0.731 and 0.717 | 1.05 and 0.974 and 0.955 |
| B36 | 0.783 and 0.745 and 0.697 | 1.04 and 0.993 and 0.929 |
| B37 | 0.827 and 0.777 | 1.05 and 0.987 |
| B38 | 0.876 | 1.12 |
| B39 | 0.903 and 0.798 | 1.07 and 0.944 |
| B40 | 0.827 and 0.764 and 0.724 | 1.06 and 0.975 and 0.924 |
| B41 | 0.849 | 1 |
